We go through 1 substance from publication PMC3195632.

For this data set, the system named is His6-H1.4 (unphosphorylated) (human). Kind of data set: EMSA.

In the case of 216-bp 601 mononucleosome, the binding signal (% shifted (H1-shifted band)) was 35.9.
